# Test results as given in patent US20030060605A1 (LA JOLLA INSTITUTE FOR ALLERGY AND IMMUNOLOGY, published 2003).
# B1: TNFR60:Fc (Fc fusion, UniProt P19438 30-211, looked up)
# chain: LVPHLGDREKRDSVCPQGKYIHPQNNSICCTKCHKGTYLYNDCPGPGQDTDCRECESGSFTASENHLRHCLSCSKCRKEMGQVEISSCTVDRDTVCGCRKNQYRHYWSENLFQCFNCSLCLNGTVHLSCQEKQNTVCTCHAGFFLRENECVSCSNCKKSLECTKLCLPQIENVKGTEDSGTT
# notes: also called TNFR:Fc; TNFR1-Fc; not shown: Fc region of human IgG1
# Tests used:
# [1] = target: soluble HSV gD-1 (glycoprotein D of HSV-1) (herpes simplex virus type 1, UniProt Q69091 26-331); test: binding inhibition experiments, flow cytometry
# [2] = target: gD-1 (Δ290-299t), mutant of soluble HSV gD-1 (herpes simplex virus type 1, UniProt Q69091 26-331); test: binding inhibition experiments, flow cytometry
binder,measurement,setting,value
B1,binding result,[1],no binding
same,binding result,[2],no binding
